The target of this experiment is PbTpk2^(226-583)-His6 (P. brasiliensis).

For the substance PbGpb1-GST (natural protein), the in vitro kinase activity (ADP-Glo) of 3 μM PbTpk2 on 50 μM kemptide in the presence of 4 μM PbGpb1, relative to PbTpk2 with kemptide alone was 40 % reduction.

These data come from article PMC4559445.
